The values below come from the supplement of paper PMC10724198.

This data set has as its system Saccharomyces cerevisiae. Kind of data set: protein stability index of tFT-peptide fusion (C-terminal peptide) (PSI (0-1 scale)); higher = more stable (slower turnover). Particulars: temperature: 30 C. Here is the method: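 MPS profiling in S. cerevisiae of the yeast C-terminome library: the last 12 aa of each annotated ORF are fused to the C-terminus of a sfGFP-mCherry timer, after a GGGS linker. Cells are FACS-sorted into 8 mCherry/sfGFP bins and deep-sequenced. PSI runs from 0 (unstable) to 1 (stable); wild type and das1Δ backgrounds, two technical replicates each.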

Where [1] appears, read: genetic background: das1 deletion.

± gives the standard deviation of the averaged measurements.

For EINNNLGVRLVD [DMA1 C-terminal 12 aa], the protein stability index reads like this: under setting [1], 0.711 ± 0.012; (genetic background: wild type) 0.697 ± 0.026.
Taken in the same sequence, the figures for EIRNMVINSTKD [BFA1 C-terminal 12 aa] were 0.713 ± 0.008 and 0.688 ± 0.021.
For EKDELDNIEVSK [QCR7 C-terminal 12 aa], the protein stability index came to 0.696 ± 0.0052 under setting [1] and 0.683 ± 0.0078 (genetic background: wild type).
For EKFLGKKKTKTD [GPI16 C-terminal 12 aa], in that order: 0.701 ± 0.06 and 0.689 ± 0.05.
For EKKIATRGAFAC [MCO32 C-terminal 12 aa], the protein stability index came out at 0.707 ± 0.01 under setting [1] and 0.7 ± 0.012 (genetic background: wild type).
Taken in the same sequence, the figures for EKQYVKILDDTH [CSF1 C-terminal 12 aa] were 0.716 ± 0.011 and 0.695 ± 0.037.
Sequence EKRFPEVMMLEK [FET4 C-terminal 12 aa] showed a protein stability index under setting [1] of 0.703 ± 0.026 and a protein stability index (genetic background: wild type) of 0.679 ± 0.0099.
Taken in the same sequence, the figures for EKVNEILRSTEK [GCD14 C-terminal 12 aa] were 0.69 ± 0.0098 and 0.717 ± 0.0097.
In the case of EKWKINKKETVE [MOD5 C-terminal 12 aa], the protein stability index under setting [1] came to 0.697 ± 0.03 and the protein stability index (genetic background: wild type) was 0.7095 ± 0.0026.
Consider ELAYKSFYALLD [VPS28 C-terminal 12 aa], for which the protein stability index by setting is: under setting [1], 0.691 ± 0.019; (genetic background: wild type) 0.702 ± 0.045.
On to ELENEHVPWGKK [HNM1 C-terminal 12 aa], for which the protein stability index came out at 0.714 ± 0.032 under setting [1] and 0.667 ± 0.015 (genetic background: wild type).
For ELIISKREIEKE [GEA1 C-terminal 12 aa], in that order: 0.724 ± 0.022 and 0.731 ± 0.079.
ELKRSGKLTRSV [TRM7 C-terminal 12 aa]: the protein stability index is, setting by setting: under setting [1], 0.699 ± 0.0086; (genetic background: wild type) 0.662 ± 0.013.
Turning to ELLYLIIAGLHI [FYV5 C-terminal 12 aa], the protein stability index is 0.6959 ± 0.0029 under setting [1] and 0.7 ± 0.05 (genetic background: wild type).
As to ELRERLLRPSKK [YPL245W C-terminal 12 aa], the protein stability index reads like this: under setting [1], 0.7246 ± 0.0023; (genetic background: wild type) 0.771 ± 0.032.
Regarding ELTKQHGNKDSN [RTK1 C-terminal 12 aa], the protein stability index is 0.7 ± 0.025 under setting [1] and 0.659 ± 0.0056 (genetic background: wild type).
For ENDDHLYIFGRN [TIM18 C-terminal 12 aa], in that order: 0.743 ± 0.033 and 0.731 ± 0.045.
With ENVEEDKEVHTN [PBI2 C-terminal 12 aa], the protein stability index is, setting by setting: under setting [1], 0.675 ± 0.036; (genetic background: wild type) 0.6976 ± 0.0046.
For EPSLRGHLIFVL [YBR300C C-terminal 12 aa], the protein stability index turned out to be 0.515 ± 0.0098 under setting [1] and 0.5178 ± 0.0049 (genetic background: wild type).
Taken in the same sequence, the figures for EQAAKYIEYLNL [RAD10 C-terminal 12 aa] were 0.817 ± 0.019 and 0.603 ± 0.045.
As to EQEVIFTDLTAY [ECM32 C-terminal 12 aa], the protein stability index stood at 0.742 ± 0.015 under setting [1] and 0.7 ± 0.012 (genetic background: wild type).
EQHNVLDTKKNE [SPC2 C-terminal 12 aa]: the protein stability index was determined as 0.687 ± 0.037 under setting [1] and 0.649 ± 0.029 (genetic background: wild type).
On to ERDGYYYLKRSS [VHT1 C-terminal 12 aa], for which the protein stability index by setting is: under setting [1], 0.715 ± 0.019; (genetic background: wild type) 0.694 ± 0.02.
As to EREVNPSARSLG [YLR184W C-terminal 12 aa], the protein stability index runs as follows: under setting [1], 0.694 ± 0.028; (genetic background: wild type) 0.684 ± 0.013.
For the sequence ESKKTKGEELTL [ARG1 C-terminal 12 aa], the protein stability index was 0.6793 ± 0.0016 under setting [1] and 0.669 ± 0.015 (genetic background: wild type).
With ESLSNEAALKAN [RPO31 C-terminal 12 aa], the protein stability index reads like this: under setting [1], 0.676 ± 0.027; (genetic background: wild type) 0.397 ± 0.017.
The sequence ESPTEDSVPHAE [CSA1 C-terminal 12 aa] had a protein stability index under setting [1] of 0.709 ± 0.018 and a protein stability index (genetic background: wild type) of 0.687 ± 0.032.
Consider ESSARRDRKEHI [TMA23 C-terminal 12 aa], for which the protein stability index amounted to 0.679 ± 0.035 under setting [1] and 0.701 ± 0.041 (genetic background: wild type).
ETDSESEVESIM [SYG1 C-terminal 12 aa]: the protein stability index is, setting by setting: under setting [1], 0.697 ± 0.036; (genetic background: wild type) 0.675 ± 0.025.
Taken in the same sequence, the figures for EVKVDKVVYEKE [VPS29 C-terminal 12 aa] were 0.683 ± 0.067 and 0.725 ± 0.04.
Taken in the same sequence, the figures for EVSTEDTVHDEL [EUG1 C-terminal 12 aa] were 0.675 ± 0.0097 and 0.683 ± 0.041.
Regarding EYLQSMKTSINR [SFB2 C-terminal 12 aa], the protein stability index runs as follows: under setting [1], 0.69 ± 0.024; (genetic background: wild type) 0.695 ± 0.024.
Consider FARFITAIFHHI [MKC7 C-terminal 12 aa], for which the protein stability index is, setting by setting: under setting [1], 0.73 ± 0.019; (genetic background: wild type) 0.153 ± 0.0061.
Turning to FDALMNNDGDSD [TIF4632 C-terminal 12 aa], the protein stability index was 0.68 ± 0.016 under setting [1] and 0.6696 ± 0.0037 (genetic background: wild type).
Taken in the same sequence, the figures for FDDSSSVSSKSD [GPC1 C-terminal 12 aa] were 0.717 ± 0.014 and 0.695 ± 0.027.
Regarding FDRVRLLVDKIT [HIR3 C-terminal 12 aa], the protein stability index runs as follows: under setting [1], 0.683 ± 0.0076; (genetic background: wild type) 0.234 ± 0.0042.
FDSNVSVAVDER [SET5 C-terminal 12 aa]: the protein stability index was found to be 0.699 ± 0.022 under setting [1] and 0.651 ± 0.027 (genetic background: wild type).
Take FFLEECHRIGSK [HEM12 C-terminal 12 aa]: the protein stability index runs as follows: under setting [1], 0.726 ± 0.015; (genetic background: wild type) 0.7467 ± 0.007.
As for FGGVRSPKMRRL [MRPS18 C-terminal 12 aa], the protein stability index by setting is: under setting [1], 0.72 ± 0.017; (genetic background: wild type) 0.681 ± 0.042.
FGSNVNQQFNFN [SRP1 C-terminal 12 aa]: the protein stability index is, setting by setting: under setting [1], 0.723 ± 0.0085; (genetic background: wild type) 0.719 ± 0.032.
Regarding FHHMLIFIILKL [PRM2 C-terminal 12 aa], the protein stability index runs as follows: under setting [1], 0.203 ± 0.013; (genetic background: wild type) 0.193 ± 0.028.
Take FIVAEYIQQKKV [SRB4 C-terminal 12 aa]: the protein stability index under setting [1] was found to be 0.694 ± 0.018 and the protein stability index (genetic background: wild type) was 0.3321 ± 0.00069.
For FKMCETEMQPIK [YGR201C C-terminal 12 aa], the protein stability index by setting is: under setting [1], 0.7043 ± 0.0065; (genetic background: wild type) 0.669 ± 0.013.
As for FLDDVLNGREII [YNL058C C-terminal 12 aa], the protein stability index by setting is: under setting [1], 0.708 ± 0.011; (genetic background: wild type) 0.752 ± 0.015.
FNNILTKEMQKI [CLD1 C-terminal 12 aa]: the protein stability index came out at 0.701 ± 0.031 under setting [1] and 0.717 ± 0.049 (genetic background: wild type).
In the case of FNVTKKSLTNHS [CDS1 C-terminal 12 aa], the protein stability index reads like this: under setting [1], 0.6978 ± 0.0048; (genetic background: wild type) 0.742 ± 0.049.
With FPVKSSPNAHTA [YLR334C C-terminal 12 aa], the protein stability index runs as follows: under setting [1], 0.707 ± 0.018; (genetic background: wild type) 0.687 ± 0.026.
Consider FPWSHGTCIRGA [YOR376W C-terminal 12 aa], for which the protein stability index by setting is: under setting [1], 0.696 ± 0.013; (genetic background: wild type) 0.688 ± 0.01.
Turning to FQREQVAKGGLL [CHL4 C-terminal 12 aa], the protein stability index was 0.717 ± 0.016 under setting [1] and 0.69 ± 0.057 (genetic background: wild type).
Turning to FRRRLGDRFKKD [MRX7 C-terminal 12 aa], the protein stability index reads like this: under setting [1], 0.6895 ± 0.0044; (genetic background: wild type) 0.695 ± 0.017.
Taken in the same sequence, the figures for FSYIRSKQMQQK [MNE1 C-terminal 12 aa] were 0.746 ± 0.031 and 0.6666 ± 0.0065.
Taken in the same sequence, the figures for FTNALKNMYFSA [YJR037W C-terminal 12 aa] were 0.709 ± 0.0094 and 0.585 ± 0.019.
Consider FVYERMKWNFGI [LEU5 C-terminal 12 aa], for which the protein stability index reads like this: under setting [1], 0.7059 ± 0.0044; (genetic background: wild type) 0.275 ± 0.025.
Taken in the same sequence, the figures for FWHEVVVFPIPN [YDR015C C-terminal 12 aa] were 0.717 ± 0.017 and 0.716 ± 0.062.
Take GAGVVAAAAMLL [TIR1 C-terminal 12 aa]: the protein stability index reads like this: under setting [1], 0.7182 ± 0.0061; (genetic background: wild type) 0.713 ± 0.016.
For GAGWSGFKKVFK [GYL1 C-terminal 12 aa], in that order: 0.692 ± 0.013 and 0.722 ± 0.042.
Take GAHDDMDNGDDW [LAS17 C-terminal 12 aa]: the protein stability index reads like this: under setting [1], 0.689 ± 0.01; (genetic background: wild type) 0.663 ± 0.015.
As for GAIYVLQWANPT [YBR287W C-terminal 12 aa], the protein stability index by setting is: under setting [1], 0.667 ± 0.025; (genetic background: wild type) 0.662 ± 0.061.
GATEKRKCAKPF [CSL4 C-terminal 12 aa]: the protein stability index under setting [1] came out at 0.674 ± 0.033 and the protein stability index (genetic background: wild type) amounted to 0.687 ± 0.029.
On to GDDDIDDDDDMI [TVP15 C-terminal 12 aa], for which the protein stability index was 0.691 ± 0.023 under setting [1] and 0.677 ± 0.023 (genetic background: wild type).
Regarding GEDEENTVDSQY [YOL131W C-terminal 12 aa], the protein stability index under setting [1] turned out to be 0.688 ± 0.015 and the protein stability index (genetic background: wild type) turned out to be 0.6803 ± 0.0017.
As to “GEDVLEGGCLLI [YIR023C-A C-terminal 12 aa]”, the protein stability index is 0.708 ± 0.051 under setting [1] and 0.727 ± 0.057 (genetic background: wild type).
GELSVDEKKKIY [ERV29 C-terminal 12 aa]: the protein stability index by setting is: under setting [1], 0.6932 ± 0.00077; (genetic background: wild type) 0.657 ± 0.041.
On to GFADLDNFMSSL [HAA1 C-terminal 12 aa], for which the protein stability index under setting [1] came out at 0.686 ± 0.039 and the protein stability index (genetic background: wild type) was 0.689 ± 0.033.
Consider GGFLSFGGGYDE [AIM25 C-terminal 12 aa], for which the protein stability index reads like this: under setting [1], 0.712 ± 0.034; (genetic background: wild type) 0.726 ± 0.013.
For GGFSTEFNSCDT [MLF3 C-terminal 12 aa], in that order: 0.719 ± 0.019 and 0.721 ± 0.023.
With GGGASSIVIEKI [ERG10 C-terminal 12 aa], the protein stability index by setting is: under setting [1], 0.697 ± 0.035; (genetic background: wild type) 0.694 ± 0.011.
